Target: the molecule itself
Assay: SEC

B1: LexAPaS125A, full-length P. aeruginosa LexA carrying the S125A mutation in the catalytic dyad (natural protein)
chain: MQKLTPRQAEILSFIKRCLEDHGFPPTRAEIAQELGFKSPNAAEEHLKALARKGAIEMTPGASRGIRIPGFEPHAANDDEGLPVIGRVAAGAPILAEQNIEESCRINPAFFNPRADYLLRVRGMAMKDIGILDGDLLAVHVTREARNGQVVVARIGEEVTVKRFKREGSKVWLLAENPEFAPIEVDLKEQELIIEGLSVGVIRR
For B1, which “stoichiometry N” value is on record?
The value was 2.

Reference: article doi:10.1101/2024.03.22.585941 (bioRxiv, 2024)
